Assay results published in US20250154279A1 (BEIGENE, published 2025).
Blank lines part the entries; values can stand above or below the binder they belong to.

Legend:
[1] = target: T1, human CD137 (recombinant antigen of the ELISA of Example 2 and the SPR of Example 3; construct not stated) (human, UniProt Q07011 24-186, limits assumed); test: SPR
T1 construct: also called huCD137

[2] = target: T2, human CD137 over-expressed on HuT78 cells (HuT78/CD137) (human, UniProt Q07011 24-255); test: flow cytometry on live HuT78/CD137 cells
T2 construct: also called Hut78/huCD137; native CD137
Description: To evaluate the binding activity of anti-CD137 antibody to bind native CD137 on live cells, HuT78 cells were engineered to over-express human CD137. Live HuT78/CD137 cells were seeded in a 96-well plate, and were incubated with a series of dilutions of anti-CD137 antibody. Goat anti-Human IgG was used as secondary antibody to detect antibody binding to the cell surface. EC₅₀ values for dose-dependent binding to human native CD137 were determined by fitting the dose-response data to the four-parameter logistic model with GraphPad Prism™. The humanized VHHs retained sub-nanomolar binding affinity to native CD137.

[3] = target: T1, human CD137 (recombinant antigen of the …); test: SPR, antibody captured on anti-human Fc surface, Test 2
Excerpt: (§1) For affinity determination, antibodies were captured by anti-human Fe surface, and used in the affinity—assay based on surface plasmon resonance (SPR) technology.

[4] = target: T1, human CD137 (recombinant antigen of the …); test: SPR, antibody captured on anti-human Fc surface, Test 1
Excerpt: as §1

[5] = target: T1, human CD137 (recombinant antigen of the …); test: SPR; remark: listed apart in the source

T2 sequence (Q07011 24-255 limits assumed): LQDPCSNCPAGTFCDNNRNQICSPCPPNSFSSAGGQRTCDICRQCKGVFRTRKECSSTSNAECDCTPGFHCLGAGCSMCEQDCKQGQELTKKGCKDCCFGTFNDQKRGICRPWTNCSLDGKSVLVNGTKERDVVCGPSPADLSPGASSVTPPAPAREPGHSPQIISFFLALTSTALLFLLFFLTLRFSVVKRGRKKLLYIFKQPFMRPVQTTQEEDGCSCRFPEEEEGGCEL

B1: BGA-9612 (chimeric Fc-VHH, as compared with the humanized VHHs in Examples 3-4) (VHH)
chain: EPKSSDKTHTCPPCPAPPAAGPSVFLFPPKPKDTLMISRTPEVTCVVVDVSHEDPEVKFNWYVDGVEVHNAKTKPREEQYNSTYRVVSVLTVLHQDWLNGKEYKCKVSNKALAAPIEKTISKAKGQPREPQVYTLPPSREEMTKNQVSLTCLVKGFYPSDIAVEWESNGQPENNYKTTPPVLDSDGSFFLYSKLTVDKSRWQQGNVFSCSVMHEALHNHYTQKSLSLSPGKGGGGSQVQLVESGGGTVQPGDSLRLSCAASGRTFDNYAVGWFRQAPGKERQYVGTYWSGYAHYGDFENNRFTISRDNAKNTVYLQMDNLKPEDTAVYYCAISLKYPMATVTPDYQGQGTQVTVSS
Kd [1]: 20.3 nM
koff [1]: 0.000419 s⁻¹
kon [1]: 20700 M⁻¹ s⁻¹
EC50 [2]: 0.85 nM
Kd [3]: 15.2 nM
koff [3]: 0.000754 s⁻¹
kon [3]: 49500 M⁻¹ s⁻¹
Kd [4]: 20.3 nM
koff [4]: 0.000419 s⁻¹
kon [4]: 20700 M⁻¹ s⁻¹

B2: BGA-3544 (humanized VHH, Fc-VHH format) (VHH)
chain: EPKSSDKTHTCPPCPAPPAAGPSVFLFPPKPKDTLMISRTPEVTCVVVDVSHEDPEVKFNWYVDGVEVHNAKTKPREEQYNSTYRVVSVLTVLHQDWLNGKEYKCKVSNKALAAPIEKTISKAKGQPREPQVYTLPPSREEMTKNQVSLTCLVKGFYPSDIAVEWESNGQPENNYKTTPPVLDSDGSFFLYSKLTVDKSRWQQGNVFSCSVMHEALHNHYTQKSLSLSPGKGGGGSEVQLVESGGGLVQPGGSLRLSCAASGRTFDNYAVGWFRQAPGKEREYVGTYWSGYAHYGDFEKGRFTISRDNSKNTVYLQMNNLRPEDTAVYYCAISLKYPMATVTPDYQGQGTQVTVSS
EC50 [2]: 0.85 nM
Kd [3]: 17.6 nM
koff [3]: 0.000999 s⁻¹
kon [3]: 56900 M⁻¹ s⁻¹

B5: BGA-6582-E44G (VHH)
chain: EPKSSDKTHTCPPCPAPPAAGPSVFLFPPKPKDTLMISRTPEVTCVVVDVSHEDPEVKFNWYVDGVEVHNAKTKPREEQYNSTYRVVSVLTVLHQDWLNGKEYKCKVSNKALAAPIEKTISKAKGQPREPQVYTLPPSREEMTKNQVSLTCLVKGFYPSDIAVEWESNGQPENNYKTTPPVLDSDGSFFLYSKLTVDKSRWQQGNVFSCSVMHEALHNHYTQKSLSLSPGKGGGGSEVQLLESGGGLVQPGGSLRLSCAASGRTFDNYAVGWFRQAPGKGRQYVGTYWSGYAHYGDFENNRFTISRDNSKNTVYLQMNSLRAEDTAVYYCAISLKYPMATVTPDYQGQGTLVTVSS
Kd [5]: 9.16 nM
koff [5]: 0.000242 s⁻¹
kon [5]: 26400 M⁻¹ s⁻¹

B11: BGA-6582 (humanized VHH from BGA-9612, Fc-VHH format) (VHH)
chain: EPKSSDKTHTCPPCPAPPAAGPSVFLFPPKPKDTLMISRTPEVTCVVVDVSHEDPEVKFNWYVDGVEVHNAKTKPREEQYNSTYRVVSVLTVLHQDWLNGKEYKCKVSNKALAAPIEKTISKAKGQPREPQVYTLPPSREEMTKNQVSLTCLVKGFYPSDIAVEWESNGQPENNYKTTPPVLDSDGSFFLYSKLTVDKSRWQQGNVFSCSVMHEALHNHYTQKSLSLSPGKGGGGSEVQLLESGGGLVQPGGSLRLSCAASGRTFDNYAVGWFRQAPGKERQYVGTYWSGYAHYGDFENNRFTISRDNSKNTVYLQMNSLRAEDTAVYYCAISLKYPMATVTPDYQGQGTLVTVSS
Kd [1]: 27.7 nM
koff [1]: 0.000588 s⁻¹
kon [1]: 21200 M⁻¹ s⁻¹
Kd [5]: 13.6 nM
koff [5]: 0.000593 s⁻¹
kon [5]: 43500 M⁻¹ s⁻¹
Kd [4]: 27.7 nM
koff [4]: 0.000588 s⁻¹
kon [4]: 21200 M⁻¹ s⁻¹

B12: BGA-3726 (BGA-6582-Q46E) (VHH)
chain: EPKSSDKTHTCPPCPAPPAAGPSVFLFPPKPKDTLMISRTPEVTCVVVDVSHEDPEVKFNWYVDGVEVHNAKTKPREEQYNSTYRVVSVLTVLHQDWLNGKEYKCKVSNKALAAPIEKTISKAKGQPREPQVYTLPPSREEMTKNQVSLTCLVKGFYPSDIAVEWESNGQPENNYKTTPPVLDSDGSFFLYSKLTVDKSRWQQGNVFSCSVMHEALHNHYTQKSLSLSPGKGGGGSEVQLLESGGGLVQPGGSLRLSCAASGRTFDNYAVGWFRQAPGKEREYVGTYWSGYAHYGDFENNRFTISRDNSKNTVYLQMNSLRAEDTAVYYCAISLKYPMATVTPDYQGQGTLVTVSS
Kd [5]: 14.3 nM
koff [5]: 0.000432 s⁻¹
kon [5]: 30200 M⁻¹ s⁻¹

Further lines, results first:

binding result [5]: no binding
B3: BGA-6582-G49S (VHH)
chain: EPKSSDKTHTCPPCPAPPAAGPSVFLFPPKPKDTLMISRTPEVTCVVVDVSHEDPEVKFNWYVDGVEVHNAKTKPREEQYNSTYRVVSVLTVLHQDWLNGKEYKCKVSNKALAAPIEKTISKAKGQPREPQVYTLPPSREEMTKNQVSLTCLVKGFYPSDIAVEWESNGQPENNYKTTPPVLDSDGSFFLYSKLTVDKSRWQQGNVFSCSVMHEALHNHYTQKSLSLSPGKGGGGSEVQLLESGGGLVQPGGSLRLSCAASGRTFDNYAVGWFRQAPGKERQYVSTYWSGYAHYGDFENNRFTISRDNSKNTVYLQMNSLRAEDTAVYYCAISLKYPMATVTPDYQGQGTLVTVSS

binding result [5]: no binding
B4: BGA-6582-F37V (VHH)
chain: EPKSSDKTHTCPPCPAPPAAGPSVFLFPPKPKDTLMISRTPEVTCVVVDVSHEDPEVKFNWYVDGVEVHNAKTKPREEQYNSTYRVVSVLTVLHQDWLNGKEYKCKVSNKALAAPIEKTISKAKGQPREPQVYTLPPSREEMTKNQVSLTCLVKGFYPSDIAVEWESNGQPENNYKTTPPVLDSDGSFFLYSKLTVDKSRWQQGNVFSCSVMHEALHNHYTQKSLSLSPGKGGGGSEVQLLESGGGLVQPGGSLRLSCAASGRTFDNYAVGWVRQAPGKERQYVGTYWSGYAHYGDFENNRFTISRDNSKNTVYLQMNSLRAEDTAVYYCAISLKYPMATVTPDYQGQGTLVTVSS

Kd [5]: 14.8 nM
koff [5]: 0.000413 s⁻¹
kon [5]: 27800 M⁻¹ s⁻¹
B6: BGA-6582-R45L (VHH)
chain: EPKSSDKTHTCPPCPAPPAAGPSVFLFPPKPKDTLMISRTPEVTCVVVDVSHEDPEVKFNWYVDGVEVHNAKTKPREEQYNSTYRVVSVLTVLHQDWLNGKEYKCKVSNKALAAPIEKTISKAKGQPREPQVYTLPPSREEMTKNQVSLTCLVKGFYPSDIAVEWESNGQPENNYKTTPPVLDSDGSFFLYSKLTVDKSRWQQGNVFSCSVMHEALHNHYTQKSLSLSPGKGGGGSEVQLLESGGGLVQPGGSLRLSCAASGRTFDNYAVGWFRQAPGKELQYVGTYWSGYAHYGDFENNRFTISRDNSKNTVYLQMNSLRAEDTAVYYCAISLKYPMATVTPDYQGQGTLVTVSS

EC50 [2]: 0.88 nM
Kd [3]: 11.7 nM
koff [3]: 0.000719 s⁻¹
kon [3]: 61600 M⁻¹ s⁻¹
B7: BGA-7031 (humanized VHH, Fc-VHH format) (VHH)
chain: EPKSSDKTHTCPPCPAPPAAGPSVFLFPPKPKDTLMISRTPEVTCVVVDVSHEDPEVKFNWYVDGVEVHNAKTKPREEQYNSTYRVVSVLTVLHQDWLNGKEYKCKVSNKALAAPIEKTISKAKGQPREPQVYTLPPSREEMTKNQVSLTCLVKGFYPSDIAVEWESNGQPENNYKTTPPVLDSDGSFFLYSKLTVDKSRWQQGNVFSCSVMHEALHNHYTQKSLSLSPGKGGGGSEVQLVESGGGLVQPGGSLRLSCAASGRTFDNYAVGWFRQAPGKEREYVGTYWSGYAHYGDFENNRFTISRDNSKNTVYLQMNNLRPEDTAVYYCAISLKYPMATVTPDYQGQGTQVTVSS

binding result [5]: no binding
B8: BGA-6582-Y47W (VHH)
chain: EPKSSDKTHTCPPCPAPPAAGPSVFLFPPKPKDTLMISRTPEVTCVVVDVSHEDPEVKFNWYVDGVEVHNAKTKPREEQYNSTYRVVSVLTVLHQDWLNGKEYKCKVSNKALAAPIEKTISKAKGQPREPQVYTLPPSREEMTKNQVSLTCLVKGFYPSDIAVEWESNGQPENNYKTTPPVLDSDGSFFLYSKLTVDKSRWQQGNVFSCSVMHEALHNHYTQKSLSLSPGKGGGGSEVQLLESGGGLVQPGGSLRLSCAASGRTFDNYAVGWFRQAPGKERQWVGTYWSGYAHYGDFENNRFTISRDNSKNTVYLQMNSLRAEDTAVYYCAISLKYPMATVTPDYQGQGTLVTVSS

binding result [5]: no binding
B9: BGA-6582-I94K (VHH)
chain: EPKSSDKTHTCPPCPAPPAAGPSVFLFPPKPKDTLMISRTPEVTCVVVDVSHEDPEVKFNWYVDGVEVHNAKTKPREEQYNSTYRVVSVLTVLHQDWLNGKEYKCKVSNKALAAPIEKTISKAKGQPREPQVYTLPPSREEMTKNQVSLTCLVKGFYPSDIAVEWESNGQPENNYKTTPPVLDSDGSFFLYSKLTVDKSRWQQGNVFSCSVMHEALHNHYTQKSLSLSPGKGGGGSEVQLLESGGGLVQPGGSLRLSCAASGRTFDNYAVGWFRQAPGKERQYVGTYWSGYAHYGDFENNRFTISRDNSKNTVYLQMNSLRAEDTAVYYCAKSLKYPMATVTPDYQGQGTLVTVSS

Kd [5]: 13.6 nM
koff [5]: 0.000593 s⁻¹
kon [5]: 43500 M⁻¹ s⁻¹
B10: BGA-6582-V78L (VHH)
chain: EPKSSDKTHTCPPCPAPPAAGPSVFLFPPKPKDTLMISRTPEVTCVVVDVSHEDPEVKFNWYVDGVEVHNAKTKPREEQYNSTYRVVSVLTVLHQDWLNGKEYKCKVSNKALAAPIEKTISKAKGQPREPQVYTLPPSREEMTKNQVSLTCLVKGFYPSDIAVEWESNGQPENNYKTTPPVLDSDGSFFLYSKLTVDKSRWQQGNVFSCSVMHEALHNHYTQKSLSLSPGKGGGGSEVQLLESGGGLVQPGGSLRLSCAASGRTFDNYAVGWFRQAPGKERQYVGTYWSGYAHYGDFENNRFTISRDNSKNTLYLQMNSLRAEDTAVYYCAISLKYPMATVTPDYQGQGTLVTVSS
